According to publication PMC11365945:

T1: Sh1 (Glycine soja, UniProt I1MNH4 1-230+=TTT+231-511, T232A;internal_change)
T1 sequence: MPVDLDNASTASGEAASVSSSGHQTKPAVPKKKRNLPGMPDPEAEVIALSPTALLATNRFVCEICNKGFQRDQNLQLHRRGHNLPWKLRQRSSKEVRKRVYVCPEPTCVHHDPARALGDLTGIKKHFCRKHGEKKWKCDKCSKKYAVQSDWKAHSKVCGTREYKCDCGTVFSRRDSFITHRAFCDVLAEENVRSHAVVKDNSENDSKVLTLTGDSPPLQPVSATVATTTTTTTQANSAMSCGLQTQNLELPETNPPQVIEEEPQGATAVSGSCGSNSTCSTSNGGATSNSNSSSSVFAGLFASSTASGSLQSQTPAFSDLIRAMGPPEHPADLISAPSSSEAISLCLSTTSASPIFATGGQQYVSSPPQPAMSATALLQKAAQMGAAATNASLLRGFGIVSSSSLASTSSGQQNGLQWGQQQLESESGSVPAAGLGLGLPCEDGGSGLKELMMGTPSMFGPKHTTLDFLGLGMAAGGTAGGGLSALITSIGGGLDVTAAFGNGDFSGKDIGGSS

B1: SHAT1-5 promoter S2-12 (dsDNA)
DNA 1: AATATATAAAATTCTTGCTTTATCACAAGTCCATTTTGAGGTATTTTTTATTTCTTCGTG
DNA 2: CACGAAGAAATAAAAAATACCTCAAAATGGACTTGTGATAAAGCAAGAATTTTATATATT
B2: SHAT1-5 promoter S2-6 (dsDNA)
DNA 1: CCATTTTGAGGTATTTTTTATTTCTTCGTGTGAAATCTTGTACATTCTTTGGAGATGCTG
DNA 2: CAGCATCTCCAAAGAATGTACAAGATTTCACACGAAGAAATAAAAAATACCTCAAAATGG
B3: SHAT1-5 promoter S2-11 (dsDNA)
DNA 1: TTTTAAAATAAAAAAAAAAACAAATAGATATCATGTTATTTTTAAATTATGAAACAAAAT
DNA 2: ATTTTGTTTCATAATTTAAAAATAACATGATATCTATTTGTTTTTTTTTTTATTTTAAAA
B4: SHAT1-5 promoter S2-5 (dsDNA)
DNA 1: TCATGTTATTTTTAAATTATGAAACAAAATAATATATAAAATTCTTGCTTTATCACAAGT
DNA 2: ACTTGTGATAAAGCAAGAATTTTATATATTATTTTGTTTCATAATTTAAAAATAACATGA

What follows are binders tested against T1, Sh1 (assay: EMSA).

Binding result, binds:
B1, B2, B3, B4
